Measured values: patent US20240400670A1 (JIANGSU HENGRUI PHARMACEUTICALS, published 2024)

Tests used:
[1] = target: T1, human BAFF (ACROBiosystems, BAF-H52D4) (human, UniProt Q9Y275 134-285); test: ELISA, sample coated, BAFF titrated, anti-His-HRP
T1 construct: detected with anti-His-HRP
Procedure: (§1) The specific procedures are as follows:
The test sample was diluted to 2 μg/mL with a PBS (BasalMedia, B320) buffer at pH 7.4 and added to a 96-well microplate (Coming, 3590) at 100 μL/well. The plate was incubated at 4° C. overnight. After the liquid was discarded, 5 % skim milk (BD, 232100) diluted with PBS was added at 300 μL/well for blocking, and the mixture was incubated at 37° C. for 2 h. After the blocking was completed, the blocking solution was discarded, and the plate was washed 3 times with a PBST buffer (pH 7.4, PBS containing 0.1 % tween-20). […] After the incubation, the plate was washed 3 times with PBST. […] After the plate was washed 3 times with PBST, a TMB chromogenic substrate (KPL, 5120-0077) was added at 100 μL/well, and the mixture was incubated at room temperature for 10⁻¹⁵ min, and then 1 M H₂SO₄ was added at 50 μL/well to terminate the reaction. The absorbance values at 450 nm were taken using a microplate reader. The binding curves of antibodies to antigens were fitted using software, and the EC₅₀ values were calculated.

[2] = target: T2, human APRIL (R&D Systems, 5860-AP-010/CF) (human, UniProt O75888 105-250, limits assumed); test: competition ELISA, blocks APRIL/TACI; TACI coated, biotin-APRIL
T2 construct: the B cell assay names 'R&D Systems, 5860-AP'; also called APRIL protein
T2 sequence (looked up): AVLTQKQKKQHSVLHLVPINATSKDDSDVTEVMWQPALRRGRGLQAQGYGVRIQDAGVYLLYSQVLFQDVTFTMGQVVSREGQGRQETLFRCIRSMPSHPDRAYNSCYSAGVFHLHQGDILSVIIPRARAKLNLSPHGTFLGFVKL
Procedure: as §1
(§2) The receptor protein was diluted to 2 μg/mL with a PBS (BasalMedia, B320) buffer at pH 7.4 and added to a 96-well microplate (Corning, 3590) at 100 μL/well. The plate was incubated at 4° C. overnight. After the liquid was discarded, 1 % Casein blocking solution (Thermo, 37528) was added at 200 μL/well for blocking, and the plate was incubated at 37° C. for 2 h. After the blocking was complete, the blocking solution was discarded, and the plate was washed 3 times with a PBST buffer (pH 7.4 PBS containing 0.1 % tween-20) for later use. After the biotin-labeled ligand protein at a fixed concentration was mixed with an antibody or fusion protein diluted in a gradient, the mixture was pre-incubated at 37° C. for 30 min and then added to the blocked microplate. The plate was incubated at 37° C. for 1.5 h. After the incubation was complete, the plate was washed 3 times with PBST. Streptavidin-HRP (Invitrogen, 434323, diluted at 1:4000) was added at 100 μL/well, and the plate was incubated at 37° C. for 1 h. The supernatant was removed. […] The absorbance values at 450 nm were taken using a microplate reader. Curves for the inhibition of binding of the ligands to the receptors were fitted using software, and the IC₅₀ values were calculated.

[3] = target: T2, human APRIL (R&D Systems, …); test: cell-based or functional assay
[4] = target: BAFF (R&D Systems, 7537-BF); test: cell-based or functional assay
[5] = target: T2, human APRIL (R&D Systems, …); test: SPR (Biacore), Protein A capture of sample, 1:1 model
Procedure: (§3) A certain amount of test sample was subjected to affinity capture by a biosensor chip Protein A (GE, 29127556), and then antigens at a series of concentration gradients were allowed to flow on the surface of the chip. The reaction signals were detected in real time by using Biacore (GE, 8 K) to obtain association and dissociation curves. After the dissociation was completed for each cycle, the biochip was washed and regenerated with a 10 mM glycine-hydrochloric acid solution at pH 1.5 (GE, BR-1003-54). Fitting was performed based on the experimental data using BlAevaluation version 4.1 software with a 1:1 model, and affinity values were obtained.

[6] = target: mouse BAFF (Acro Biosystems, BAF-M521y) (mouse, UniProt Q9WU72 127-309, limits assumed); test: as above
Procedure: as §3

[7] = target: T3, human BAFF (Sino Biological, 10056-HNCH) (human, UniProt Q9Y275 134-285); test: as above
T3 construct: also called BAFF protein
Procedure: as §3

[8] = target: cynomolgus monkey BAFF (Kactus, BAF-CM412) (cynomolgus monkey, UniProt A0A2K5V2X4 134-285); test: as above
Procedure: as §3

[9] = target: T2, human APRIL (R&D Systems, …); test: competition ELISA, blocks APRIL/BCMA; BCMA coated, biotin-APRIL
Procedure: as §1, §2

[10] = target: T3, human BAFF (Sino Biological, 10056-HNCH); test: competition ELISA, blocks BAFF/TACI; TACI coated, biotin-BAFF
Procedure: as §1, §2

[11] = target: T3, human BAFF (Sino Biological, 10056-HNCH); test: competition ELISA, blocks BAFF/BCMA; BCMA coated, biotin-BAFF
Procedure: as §1, §2

[12] = target: T3, human BAFF (Sino Biological, 10056-HNCH); test: competition ELISA, blocks BAFF/BAFF-R; BAFF-R coated, biotin-BAFF
Procedure: as §1, §2

- EC50 [1]: 21.5 nM
- IC50 [2]: 64.9 nM
- Activity in inhibiting proliferation of B cells (IC50, pM), APRIL [3]: 1990 pM
- Activity in inhibiting proliferation of B cells (IC50, pM), BAFF [4]: 70.1 pM
- Kd [5]: 0.0439 nM
- koff [5]: 0.00753 s⁻¹
- kon [5]: 1.72e+08 M⁻¹ s⁻¹
- Kd [6]: 0.121 nM
- koff [6]: 8.98e-05 s⁻¹
- kon [6]: 740000 M⁻¹ s⁻¹
- Kd [7]: 0.186 nM
- koff [7]: 0.00018 s⁻¹
- kon [7]: 964000 M⁻¹ s⁻¹
- Kd [8]: 0.258 nM
- koff [8]: 9.54e-05 s⁻¹
- kon [8]: 370000 M⁻¹ s⁻¹
- IC50 [9]: 484 nM
- IC50 [10]: 6.07 nM
- IC50 [11]: 4.86 nM
- IC50 [12]: 7.57 nM
B1: RCT-18 (Fc fusion)
chain: SRVDQEERFPQGLWTGVAMRSCPEEQYWDPLLGTCMSCKTICNHQSQRTCAAFCRSLSCRKEQGKFYDHLLRDCISCASICGQHPKQCAYFCENKLRSPVNLPPELDKTHTCPPCPAPEAEGAPSVFLFPPKPKDTLMISRTPEVTCVVVDVSHEDPEVKFNWYVDGVEVHNAKTKPREEQYNSTYRVVSVLTVLHQDWLNGKEYKCKVSNKALPSSIEKTISKAKGQPREPQVYTLPPSRDELTKNQVSLTCLVKGFYPSDIAVEWESNGQPENNYKTTPPVLDSDGSFFLYSKLTVDKSRWQQGNVFSCSVMHEALHNHYTQKSLSLSPGK
notes: control TACI-Fc; also called telitacicept; RC18
